What all share (type): cell-based
The test system of one experiment is gene editing with Cas9. Put plainly: Screen of 322 new SSAP proteins, gene editing activity with Cas9 (Table 5). Also noted: Cas9 with SSAP activity: scale not given here. The text has this:
(§1) 322 new SSAP proteins were identified from sequence data, synthesized, and screened for activity with Cas9 and dCas9. Gene editing activities are shown below in Table 5, followed by amino acid sequences of the proteins.

The subject of another experiment is gene editing with dCas9. Put plainly: Screen of 322 new SSAP proteins, gene editing activity with dCas9 (Table 5). More on the design: dCas9 with SSAP activity: scale not given here.
Text: as §1

Experiment [1] has as its system gene editing with Cas9 and dCas9. Put plainly: Screen of 322 new SSAP proteins, activity across all experiments (Cas9 and dCas9, Table 5). More on the design: scale not given here.
Text: as §1

The text below walks through data of patent US20250034594A1, “RNA-GUIDED GENOME RECOMBINEERING AT KILOBASE SCALE” (THE BOARD OF TRUSTEES OF THE LELAND STANFORD JUNIOR …, priority 2021, published 2025).

B1: SSAP_290: SEQ ID NO: 459; Anaerovirgula multivorans (protein)
chain: DAKHLTVVHQNLNTLLKAKADALPKGFNQTRFLQNCMTVLQDTKDIESVEPKSVARTMLKGAFLGLDFFNKECYAIVYNKKAGNSWIKTLEFQTDYKGEIKLAKKYSINTIKDIYAKLVREGDEFEEGVKDGKQVINFKPKPFNNNKILGAFAVAYYENGSMIYDTMSVEEIESVKKAYAKADKEGKYSKAWIESTGEMYKKTVLRRLCKLIELDFDTIEQKQAFDEGSGMEFKQEGKTDKPKSSLEAEFVEAEYEEVEESETSEVVEE
modifications: Anaerovirgula multivorans
Take B1: in the experiment on gene editing with Cas9, the “Cas9 with SSAP activity” value is recorded as −1.166 and the “Cas9 with SSAP activity (normalized)” value was −0.249. Moreover, in the experiment with gene editing with dCas9, the “dCas9 with SSAP activity” value is reported as −3.506 and the “dCas9 with SSAP activity (normalized)” value is on record as −0.681. For the same molecule, the “Activity across all experiments” value in experiment [1] is −2.336.

B2: SSAP_267: SEQ ID NO: 436; Clostridium combesii (protein, listed as Clostridium combesii)
chain: ANTKAIVLQETANNLNTLLKAKVKALPKGFNETRFLQNCMTVLQDTRNIEKCNSVSVARTMLKGAFLGLDFFSKECYAIPYNDYKTGKCHLEFQTDYKGERKLMKQYSVRPIKDIYAKVVREGDKFEEIIEKGIPTINFRPKPFSNEKIIGVFAVVLFEDGGLLYETMSVEDVEKIKVGFAKRDKEGNYSKAWTATPEEMYKKTVIRRLRKSVELEFDSVEQQKTYEEASEFDVKRDEEVKEEASPFENVDFEEAEEGNTIEAKQE
Turning to B2, in the experiment with gene editing with Cas9, the “Cas9 with SSAP activity” value is −0.224 and the “Cas9 with SSAP activity (normalized)” value is −0.145. In the experiment on gene editing with dCas9, the “dCas9 with SSAP activity” value is −3.571 and the “dCas9 with SSAP activity (normalized)” value was −0.553. Also, the “Activity across all experiments” value in experiment [1] was −1.897.

B3: SSAP_169: SEQ ID NO: 338; Streptomyces showdoensis (protein, listed as Streptomyces showdoensis)
chain: TSDARNAVARRAANVGQVEQAGEQPKPTMAQQIERMKPEIARALPKHMDADRIARIALTLIRKNPDLANCTTESFLGALMTCSQLGFEPGSPTQEAYIIPRKGQAEFQLGYQGMVTLFYQHPMASSVKVETVRENDYFEHEEGLEERLIHRPFADGPRGKAIAYYSVARLINGGRTFKVMYPAEIEERRQKLPSKNSPAWRDNYDEMAKKTVLRNHFKALPKSAELARALAHDGTVRTDWQPDAIDVPPEYLSEPQRPELEAGAQ
As for B3, in the experiment with gene editing with Cas9, the “Cas9 with SSAP activity” value is −1.842 and the “Cas9 with SSAP activity (normalized)” value is listed as −1.968. In the experiment with gene editing with dCas9, the “dCas9 with SSAP activity” value is recorded as −3.497 and the “dCas9 with SSAP activity (normalized)” value is given as −0.528. The “Activity across all experiments” value in experiment [1] is −2.669.

B4: SSAP_26: SEQ ID NO: 195 (protein)
chain: TVQLVQPRNSDEYDFDQTKLDLIKRTICKGATNDELQLFIHACKRTGLDPFMRQIFAVKRWDSSTKKEIMTIQTGIDGYRLIADRTGKYAPGKDTEFGYDNKGNIRWAKAYIKKMTPDGQWHEISAIAFWEEYVQTTREGKSTLFWLKKSHIMLSKCTEALALRKTFPAERSGIYTKEEMAQEFSPLEEHLVERIAASRNDQGRS
For the molecule B4, in the experiment with gene editing with Cas9, the “Cas9 with SSAP activity” value came out at 0.692 and the “Cas9 with SSAP activity (normalized)” value is reported as 1.723. For the same molecule, in the experiment with gene editing with dCas9, the “dCas9 with SSAP activity” value is given as −3.399 and the “dCas9 with SSAP activity (normalized)” value was −0.852. Besides, the “Activity across all experiments” value in experiment [1] is −1.354.

B5: SSAP_57: SEQ ID NO: 226; Pirellula sp. SH-Sr6A (protein, listed as Pirellula sp.)
chain: SEATKEAKPETAIAKKPNGIKDWLKSDALKTQIASVAPKHMAPERVMRIALNAVSRTPKLADCTPESFMRCLLDLSSWGLVPDGRHAHLIPYGTECTLVLDYKGLVTLAYRSGWVKKIHADVVFEGDIFVYSLGTVCQHIPWEFRDDANKPEHKGHFRAAYCVVTMADGIEKHEVMTASEIDAIKAKSRSGNSGPWKDHYTEMAKKTVYRRASKWLPLSPEQADAMERDDDRIIDAVSVAVTQRLSKAAMPLIGANETGDTE
For B5, in the experiment on gene editing with Cas9, the “Cas9 with SSAP activity” value is given as −3.376 and the “Cas9 with SSAP activity (normalized)” value is listed as −0.549. Moreover, in the experiment with gene editing with dCas9, the “dCas9 with SSAP activity” value was −3.405 and the “dCas9 with SSAP activity (normalized)” value is recorded as −0.557. In addition, the “Activity across all experiments” value in experiment [1] is given as −3.391.

B6: SSAP_95: SEQ ID NO: 264; Proteus terrae (protein, listed as Proteus terrae)
chain: SNPPLAQADLQKTQGTEVREKTKDQMLVEFINKPNMKAQLAAALPRHMAPDRMIRIVTTEIRKTPELANCDMQSFVGAVVQCSQLGLEPGNALGHAYILPFEKKRKQGNQWVTVRTDAQLIIGYRGMIDLARRSGQIVSISARTVRQGDSFHFEYGLNENLTHVPGENEDSPITHVYAVARLKDGGVQFEVMTHNQIEKVRTSSKAGQNGPWVSHWEEMAKKTVIRRLFKYLPVSIEMQKAVILDEKAEANVDQENSSVFEGEFEEVGQGA
For the molecule B6, in the experiment on gene editing with Cas9, the “Cas9 with SSAP activity” value is reported as −0.020 and the “Cas9 with SSAP activity (normalized)” value is reported as −0.011. In the experiment on gene editing with dCas9, the “dCas9 with SSAP activity” value was −3.325 and the “dCas9 with SSAP activity (normalized)” value is reported as −0.539. Moreover, the “Activity across all experiments” value in experiment [1] was −1.672.

B7: SSAP_320: SEQ ID NO: 489; Pseudoalteromonas sp. MQS005 (protein, listed as Pseudoalteromonas sp.)
chain: SISQQDYENLLYSKLYECESQYQAYLAEHNEKLNFNAELNYMYKAVMSGVGIEGGFPYTPLESIVESFLKAAKLGLSLDPSEQFCFLRSQYDHSTGLYHTELGLGYKGVLHLAYRSGKVKQIVSNVFYNKDNFQFNGPNSKVTHTMTVLSTSARGNLAGGYCQTELVDGSFIVTVMPPEEILAIEEQGKSVGNPAWLSAHVNQMREKTLILRHWKTLYPAIYSSSLLDSAQIFDDECEEFPFSSPSQGFSESQTIGSY
B7: in the experiment on gene editing with Cas9, the “Cas9 with SSAP activity” value is on record as −1.322 and the “Cas9 with SSAP activity (normalized)” value is −0.932. Also, in the experiment on gene editing with dCas9, the “dCas9 with SSAP activity” value is reported as −3.288 and the “dCas9 with SSAP activity (normalized)” value was −0.449. In addition, the “Activity across all experiments” value in experiment [1] is given as −2.305.

B8: SSAP_237: SEQ ID NO: 406; Paenibacillus popilliae ATCC 14706 (protein, listed as Paenibacillus popilliae)
chain: STSHLLTIHNNLEKLIDSKREAMPKSFNKTRFLQNCMTVLQDTKDVGKCDPQSVARTLLKGAFLGLDFFNKECYAITYGGSVQFQTDYKGEKKLAKKYSVRPVKDIYAKLVREGDEFIEEIKDGQPTVQFKPLPFNDSEIKGAFAVSLFEDDGLAYEVMSVAEIELTRKNYSKQPNGQAWVKSKGEMYKKTVLRRLCKNIELDFDTIEQAQAFEDSSDFEFNKEPKQAQQSPLNPQATVIDAEYEEVKEESDNETNQE
In the case of B8, in the experiment on gene editing with Cas9, the “Cas9 with SSAP activity” value is listed as −7.473. In the experiment on gene editing with dCas9, the “dCas9 with SSAP activity” value is −3.513 and the “dCas9 with SSAP activity (normalized)” value is recorded as −0.512. Also, the “Activity across all experiments” value in experiment [1] was −5.493.

B9: SSAP_96: SEQ ID NO: 265; Plesiomonas shigelloides (protein)
chain: SNQRPPIATADLQKAQSQPPAAKPEQNLINFINQPSMKSQIAAALPRHMAPERMIRIITTEIRKTPKLATCDVQSFIGAVVQCSQLGLEPGGGLGHAYLLPFGNGKAESGKPNVQLIIGYRGMIDLARRSGQIVSISSRIVREGDQFHYEYGLNETLKHVPGDNESAPITHVYAVAKLKDGGTQFEVMSFNEIEKIRGQSKAGNDGPWIKHWEEMAKKTVIRRLFKYLPVSIEMQRAVILDEKAEADIEQDNASIIGAEYSVVENAA
modifications: Plesiomonas shigelloides
Take B9: in the experiment with gene editing with Cas9, the “Cas9 with SSAP activity” value is on record as −0.322 and the “Cas9 with SSAP activity (normalized)” value is recorded as −1.581. In the experiment with gene editing with dCas9, the “dCas9 with SSAP activity” value is reported as −3.416 and the “dCas9 with SSAP activity (normalized)” value is −1.995. Further, the “Activity across all experiments” value in experiment [1] is −1.869.

B10: SSAP_225: SEQ ID NO: 394; Actinocrispum wychmicini (protein, listed as Actinocrispum wychmicini)
chain: SQTVTAAVAQRDNGAQALIAKYRTDFAQVLPSHLRPTTFVRLSQGLLRRNVKLAEAAERNPASFLAALLECARLGHDPGTDQFALVPFNDRKRNTVEVVGIEQYQGVIERMYRAGAVRSVKAEVVRAADPFEYAPDVMDRPGHKPNWFADRGELIGVYAYAEFFDGSTSRVVMMNRETVMAHKAKSRGATSEDSPWQAWEESMWLKTAVHELEKWVPTSSEDRRAARDGTADPAPVEVPRVADEVLDADLVEDDHADHPTATPTGDVR
B10: in the experiment on gene editing with Cas9, the “Cas9 with SSAP activity” value is recorded as −0.830 and the “Cas9 with SSAP activity (normalized)” value is −0.252. In the experiment on gene editing with dCas9, the “dCas9 with SSAP activity” value is −3.577 and the “dCas9 with SSAP activity (normalized)” value was −0.602. In addition, the “Activity across all experiments” value in experiment [1] is listed as −2.204.

B11: SSAP_273: SEQ ID NO: 442; Virgibacillus (multispecies) (protein, listed as Virgibacillus sp.)
chain: ATNDSVKNQIANKNQGSNQVNPNNLGLKQLLSTPTMRKKFDEVLDKKAPQFMSSLLNLYSNDSYLQKAEPMSVVTSALVAATLDLPIDKNLGYAWIVPYGGKAQFQLGYKGYIQLALRTGQYRNINVIEVYEGELKSFNRLTEEMELDFEQKQSDKVIGYTGYFELINGFRKTVYWSKEEIEKHKKRFSKSDFGWKKDWDAMAKKTVIRNMLNKWGILSIDMQKGIVEDNKDPIEKANEFDEQDIIEADFSEVNDDQEIDFSDAQ
For B11, in the experiment with gene editing with Cas9, the “Cas9 with SSAP activity” value is −1.654 and the “Cas9 with SSAP activity (normalized)” value is recorded as −0.724. Besides, in the experiment on gene editing with dCas9, the “dCas9 with SSAP activity” value was determined as 1.896 and the “dCas9 with SSAP activity (normalized)” value was 2.101. Besides, in experiment [1], the “Activity across all experiments” value turned out to be 0.121.

B12: SSAP_132: SEQ ID NO: 301; Enterocloster clostridioformis (protein, listed as Enterocloster clostridioformis)
chain: GIDVKHELEKRAAGQDKPVKLTRNMTIADMVKALEPEIKRALPAILTPERFTRMALSAVNNTPELANCTPMSFIAALMNAAQLGLEPNTPLGQAYLIPYKNKGTLECQFQLGYKGLIDLAYRTGQIQIIQAQAVREFDYFEYQYGLDSRLVHKPGNEERGQITFIYGLFKLSNGGYGFEVSNKAEMDAFAAKYSKSFGSKYSPWTEDYESMAKKTVIKRALKYAPVSSDFQKALSLDETVKSEIAVDMSEIRNDCIPADMGTEAA
As for B12, in the experiment with gene editing with Cas9, the “Cas9 with SSAP activity” value is recorded as −7.323 and the “Cas9 with SSAP activity (normalized)” value is −1.345. Further, in the experiment on gene editing with dCas9, the “dCas9 with SSAP activity” value was −3.318 and the “dCas9 with SSAP activity (normalized)” value was −0.536. In experiment [1], the “Activity across all experiments” value was −5.320.
